Assay results taken from US20230227538A1 (University of California, published 2023).
Values joined by “and” are separate entries in the source; they are usually repeats but may differ in a detail not shown here. Equal values may be shown once.

Key:
[1] = target: Spike protein of live SARS-CoV-2 (isolate France/IDF0372/2020) (SARS-CoV-2, UniProt P0DTC2 14-1273); assay: cell-based or functional assay
[2] = target: T1, SARS-CoV-2 Spike ectodomain, stabilized prefusion trimer (spike ECD, Spike^S2P) (SARS-CoV-2); assay: SPR on captured Spike^S2P
T1 construct: also called SC2 Spike ECD; Spike trimer

[3] = target: T1, SARS-CoV-2 Spike ectodomain, stabilized …; assay: SPR, fast phase of a biphasic dissociation from Spike^S2P
[4] = target: T1, SARS-CoV-2 Spike ectodomain, stabilized …; assay: SPR, slow phase of a biphasic dissociation from Spike^S2P
[5] = target: T1, SARS-CoV-2 Spike ectodomain, stabilized …; assay: SPR
[6] = target: T1, SARS-CoV-2 Spike ectodomain, stabilized …; assay: SPR, no measurable dissociation over ten minutes
[7] = target: T1, SARS-CoV-2 Spike ectodomain, stabilized …
[8] = target: T1, SARS-CoV-2 Spike ectodomain, stabilized …; remark: listed apart in the source
[9] = target: T1, SARS-CoV-2 Spike ectodomain, stabilized …; assay: SPR, Spike^S2P captured on a StreptactinXT chip

Row | Binder | fold gain in KD against Nb6 [2] | koff [3] | koff [4] | EC50 [8] | also measured
1 | Nb6-tri (trivalent Nb6 with two 20 amino acid linkers) (VHH) QVQLVESGGGLVQAGGSLRLSCAASGIIFGRNAMGWYRQAPGKERELVAGITRRGSITYYADSVKGRFTISRDNAKNTVYLQMNSLKPEDTAVYYCAADPASPAPGDYWGQGTQVTVSSGGGGSGGGGSGGGGSGGGGSQVQLVESGGGLVQAGGSLRLSCAASGIIFGRNAMGWYRQAPGKERELVAGITRRGSITYYADSVKGRFTISRDNAKNTVYLQMNSLKPEDTAVYYCAADPASPAPGDYWGQGTQVTVSSGGGGSGGGGSGGGGSGGGGSQVQLVESGGGLVQAGGSLRLSCAASGIIFGRNAMGWYRQAPGKERELVAGITRRGSITYYADSVKGRFTISRDNAKNTVYLQMNSLKPEDTAVYYCAADPASPAPGDYWGQGTQVTVSS | > 200000 fold | 0.029 s⁻¹ | < 1e-06 s⁻¹ |  | IC50, plaque assay with live SARS-CoV-2 on VeroE6 cells [1]: 0.16 nM
2 | mNb6-tri (trivalent mNb6 with a 20 amino acid linker) (VHH) QVQLVESGGGLVQAGGSLRLSCAASGYIFGRNAMGWYRQAPGKERELVAGITRRGSITYYADSVKGRFTISRDNAKNTVYLQMNSLKPEDTAVYYCAADPASPAYGDYWGQGTQVTVSSGGGGSGGGGSGGGGSGGGGSQVQLVESGGGLVQAGGSLRLSCAASGYIFGRNAMGWYRQAPGKERELVAGITRRGSITYYADSVKGRFTISRDNAKNTVYLQMNSLKPEDTAVYYCAADPASPAYGDYWGQGTQVTVSSGGGGSGGGGSGGGGSGGGGSQVQLVESGGGLVQAGGSLRLSCAASGYIFGRNAMGWYRQAPGKERELVAGITRRGSITYYADSVKGRFTISRDNAKNTVYLQMNSLKPEDTAVYYCAADPASPAYGDYWGQGTQVTVSS |  |  |  |  | Kd [5]: < 0.001 nM; dissociation half-life t½ [5]: > 192 h; IC50, live SARS-CoV-2 infection assay [1]: 54 pM and 2.3 ng/mL; koff [6]: < 1e-06 s⁻¹
3 | Nb6-bi (bivalent Nb6 with a 15 amino acid linker) (VHH) QVQLVESGGGLVQAGGSLRLSCAASGIIFGRNAMGWYRQAPGKERELVAGITRRGSITYYADSVKGRFTISRDNAKNTVYLQMNSLKPEDTAVYYCAADPASPAPGDYWGQGTQVTVSSGGGGSGGGGSGGGGSQVQLVESGGGLVQAGGSLRLSCAASGIIFGRNAMGWYRQAPGKERELVAGITRRGSITYYADSVKGRFTISRDNAKNTVYLQMNSLKPEDTAVYYCAADPASPAPGDYWGQGTQVTVSS | 750 fold | 0.027 s⁻¹ | 0.00031 s⁻¹ |  | 
4 | Nb6 (AeroNab6, NbCOV6, clone pNbCOV006A) (VHH, also called AeroNab6 MASC monomer; Parent clone (NbCOV6)) VHH: QVQLVESGGGLVQAGGSLRLSCAASGIIFGRNAMGWYRQAPGKERELVAGITRRGSITYYADSVKGRFTISRDNAKNTVYLQMNSLKPEDTAVYYCAADPASPAPGDYWGQGTQVTVSS |  |  |  | 359 nM | IC50 [7]: 370 nM; koff [2]: 0.056 s⁻¹; Kd [9]: 210 nM
5 | mNb6 (matured Nb6, mNbCOV6, AeroNab6m) (VHH) VHH: QVQLVESGGGLVQAGGSLRLSCAASGYIFGRNAMGWYRQAPGKERELVAGITRRGSITYYADSVKGRFTISRDNAKNTVYLQMNSLKPEDTAVYYCAADPASPAYGDYWGQGTQVTVSS |  |  |  | 0.056 nM | 
